Experimental data from the supplement of paper PMC9170038.

Tested on: MS2 coat protein
Assay: apparent KD of MS2 coat protein; higher = weaker reporter binding
Settings: Eterna round: R107
Procedure, shortened: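 Designed RNA switches were transcribed on-chip from Illumina sequencing clusters. They were then titrated with SNAP-549-labelled MS2 coat protein (twofold steps, 0.7 or 1.5 nM to 3 µM; 0.8–1.5 h to 10–20 min per step) in 100 mM Tris-HCl pH 7.5, 80 mM KCl, 4 mM MgCl2, without or with constant ligand. Apparent KD is the per-design median of normalised cluster binding-curve fits.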

[1] = input ligand: theophylline 20 uM
[2] = input ligand: tryptophan 2.4 mM
[3] = input ligand: theophylline 2 mM

| Sequence | apparent KD of MS2 coat protein (input ligand: arginine 13.2 mM) | apparent KD of MS2 coat protein [1] | apparent KD of MS2 coat protein [2] | apparent KD of MS2 coat protein [3] | apparent KD of MS2 coat protein (input ligand: none) |
| --- | --- | --- | --- | --- | --- |
| GUAAAUGUGACGGAUACCAGCGUGUUGUAGAACAUGAGGAUCACCCAUGUAGUGAUCAUGCGCCCUUGGCAGCUGGUAUGUUUGU [7.aB] | 0.0907 µM | 0.504 µM | 0.684 µM |  |  |
| UUAUAAGCACCUGAUACCAGUAUGAACCCGUACAUGAGGAUCACCCAUGUUAAUUUCUAUUACCCUUGGCAGCAGCCUUUUUCCU [theeternabot_sameState_MS2_Theo_B_2] | 0.0187 µM | 0.0288 µM | 0.0217 µM |  |  |
| ACUGACUUUACGGCCGCCACUCAUUGGCACGUGUCAUGUCAACAUGAGGAUCACCCAUGUAUGAUGAGGACCGGGUAAGGGCUGC [theeternabot_exclusion_MS2_Trp_B_2] | 0.00871 µM | 0.013 µM |  | 0.011 µM |  |
| ACAUGAGGAUCACCCAUGUAUGGCGCGGAAGGAGCGUGAUUAAGCACAGGUAGGUCGCUGCGUUGAUCGAGCGUUAGCUCGAUAA [SSArg A #9] | 0.0158 µM | 0.0251 µM | 0.0223 µM | 0.0224 µM | 0.019 µM |
| UAAAGUAGGUCCAAUAAAACUACAUGUGAAGGAGCGCGCGAAAGCGCAGGUAGGUCGCACAUGAGGAUCACCCAUGUCCUACAAU [MAT - Exclusion Arginine A - Mod of Eli - D17] | 0.0426 µM | 0.0691 µM | 0.043 µM | 0.0682 µM | 0.0515 µM |
| AAAUAAAUAACUGAUACCAGUGUACUGACAUGAGGAUCACCCAUGUUGGGUUUUGUUGUACACCCUUGGCAGCAGAAAUAUAAAA [AstrosExyTheB#1] | 0.0287 µM | 0.0412 µM | 0.0379 µM |  |  |
| AUAUAUAUGCGAAGGAGCGGGAAAUAUAUAUAUAUAAUCCUAACAUGAGGAUCACCCAUGUCCCAGGUAGGUCGCGCAUAUAUAU [12.A] | 0.0682 µM | 0.0885 µM | 0.0722 µM | 0.087 µM | 0.074 µM |
| ACGUCACGUUUACUCGUGGUUUCGAUCGAUACCAGUAGCGAGAGUUACCCUUGGCAGCGACAUGAGGAUCACCCAUGUGCGAAGA [XTheo A #26] | 0.0122 µM | 0.014 µM | 0.0117 µM |  |  |
| UGGGUAGCAUAGAUUGAUAGCUACACUGAAGGAGCGAGGAUAACCUCAGGUAGGUCGCAGACAUGAGGAUCACCCAUGUAGAUGG [Same State Arginine A GF17] | 0.0777 µM | 0.174 µM | 0.209 µM | 0.252 µM | 0.254 µM |
| UAUAUAGAAGGAAGUCAUAUAGAUGCAGAAGGAGCGUAGGAAACUACAGGUAGGUCGCUGAGGUACAUGAGGAUCACCCAUGUAG [SSArg A #15 Slice of Pi] | 0.0247 µM | 0.0447 µM | 0.0294 µM | 0.0249 µM | 0.0323 µM |
| UAAUGCAGGUCGGCCGCCACUACAACAUGAGGAUCACCCAUGUACAUGUUGUAGUACGGUAUGAGUAGGACCGGGACCUGCAUAA [Trp-Ms2-M'-T'-(MT)'_Design1] | 0.213 µM | 0.154 µM | 0.787 µM | 0.594 µM | 0.299 µM |
| AGAUGAGUCACGGCCGCCACUCUUCACAGGUUCACCCUUGGUUAACAUGAGGAUCACCCAUGUGGGAGGACCGGGUGAUGAGCAU [XTryp B #5] | 0.0142 µM | 0.0173 µM |  | 0.0156 µM |  |
| AUUAAGGAUAUAUAGAAGGCGGAGAAGAGACGAGGACCGGUACGGCCGCCACUCGUGUUAGUUAACAUGAGGAUCACCCAUGUAA [Turkey 2] | 0.0413 µM | 0.0769 µM |  | 0.102 µM |  |
| GGCUCCAGCCGAAGGAGCGCUAGAAGGUGACAUGAGGAUCACCCAUGUGUGUGAUGUGGCUAGCAGGUAGGUCGCGGAGGAGCUU [Exclusion - Arginine B (Freestyle 19)] | 0.0625 µM | 0.108 µM | 0.0711 µM | 0.0906 µM | 0.0645 µM |
| CGGCCCUCACCUGAGGAACACCCAGGUGAUACCAGCCUGGAAACAGGCCCUUGGCAGCACCAGGUCAUCAAAGAUGACCAAGCCG [TheoAX 24 #SwitchBubble #AlternativeMS2] | 0.0208 µM | 0.0287 µM | 0.0192 µM | 0.171 µM | 0.0201 µM |
| ACAUGAGGAUCACCCAUGUCAGGGCACGAUACCAGCUGAUCCGAUGGCCCUUGGCAGCGUGACGUGUGGUCAUGAGGAUCACCCG [kvfmullin] | 0.139 µM | 0.209 µM | 0.182 µM |  |  |
| UCGGGCAGAGCGGCCGCCACUGUAAGGCGUGCGGAUGACGGAACAUGAGGAUCACCCAUGUUGUUUAGGACCGGGCUUGCGGCGA [nynullin] | 0.0225 µM | 0.0272 µM | 0.0167 µM | 0.0112 µM | 0.0158 µM |
| AUUGGGUUAUCAGAUACCAGACUAUUCUAGACAUGAGGAUCACCCAUGUAUUGGGUUUUCGUCCCUUGGCAGCUGUUAAGUUUAA [JR_SSTheophyB_Sub005] | 0.117 µM | 0.195 µM | 0.165 µM |  |  |
| UUGGAUAUGCGAAGGAGCGGGAAAUAUAUAUAUAUAAUCCUAACAUGAGGAUCACCCAUGUCCCAGGUAGGUCGCGCAUAUUUGG [12.H] | 0.0481 µM | 0.0693 µM | 0.0499 µM | 0.0707 µM | 0.0517 µM |
| AUAUUUAAUGGAAGGAGCGCGGAUAAUAAAGUGGGUAAACAUGAGGAUCACCCAUGUAAACCGCAGGUAGGUCGCCGAAAUAUAU [AstrosEXyARgB#8] | 0.0566 µM | 0.0494 µM | 0.047 µM | 0.0576 µM | 0.039 µM |
